Laboratory results published in the nanobody polyreactivity screen of Harvey et al. (2022).

Experiment: yeast display, Sf9 membrane polyspecificity reagent, FACS + sequencing; frameworks hold sequencing errors
How it was run: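 Genes from sorted yeast were amplified by colony PCR, read by MiSeq 2 × 250 sequencing and filtered on CDR length. These cells carried a synthetic nanobody library in Saccharomyces cerevisiae BJ5465 and were sorted by FACS into low and high (top ~1%) gates on anti-HA and streptavidin fluorescence. Polyreactivity is labelled according to the gate of origin.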
In the case of “QVQLVESGGGLVQAGGSLRLSCAASGLIFFPKAMGGYRPAPGKERELVAYITWSGGGTNYSDSVKGRFTISRDNAKNTVYLQMNSLKPEDTAVYYCNADGTRDYFSLITGSYSVTYDYWGQGTQVTVSS”, the “polyreactivity (PSR sort gate)” value is reported as “high polyreactivity”.
With “QVQLVESGGGLVQAGGSLRLSCAASGLIFFYYTMGWYRQAPGKERELVAAISQSGGRTYYADSVKGRFTISRDNAKNTVYLQMNSLKPEDTAVYYCAAAVRYRGDEFDYWGQGTQVTVSS” the “polyreactivity (PSR sort gate)” value was “low polyreactivity”.
In the case of “QVQLVESGGGLVQAGGSLRLSCAASGLIFGPYTMGWYRQAPGKERELVAAISRSGGITYYADSEKGRFTISRDNAKNTVYLQMNSLKPEDTAGYYCAARYSTQWSRYDYWGQGTQVTVSS”, the “polyreactivity (PSR sort gate)” value is reported as “high polyreactivity”.
In the case of “QVQLVESGGGLVQAGGSLRLSCAASGLIFGRNAMGWYRQAPGKERELVAAISWSGGSTYYADSVKGRFTISRDNAKNTVYLEMKSLKPEDTAVYYCYRYRYYGSEDDYWGQCTQVTVSS”, the “polyreactivity (PSR sort gate)” value is reported as “high polyreactivity”.
In the case of “QVQLVESGGGLVQAGGSLRLSCAASGLIFGRNAMGWYRQAPGKERELVAAISWSGGSTYYADSVKGRFTISRDNAKNTVYLQMNSLKPEDTAVYYCNRYRYYGSEDDYWGQGTQVTVSS”, the “polyreactivity (PSR sort gate)” value is reported as “high polyreactivity”.
With “QVQLVESGGGLVQAGGSLRLSCAASGLIFGRNAMGWYRQAPGKERELVAAITSGGSTYYADSVKGRFTISRDNAKNTVYLQMNSLKPEDTAVYYCAADVVDLYLLDYWGQGTQVTVSS” the “polyreactivity (PSR sort gate)” value was “low polyreactivity”.
In the case of “QVQLVESGGGLVQAGGSLRLSCAASGLIFGSYVMGWYRQAPGKERELVAAITVRTGTTYYADSVKGRFTISRDNAKNTVYLQMNSLKPEDTAVYYCARRYRPKYGYWGQGTQVTVSS”, the “polyreactivity (PSR sort gate)” value is reported as “high polyreactivity”.
For “QVQLVESGGGLVQAGGSLRLSCAASGLIFGTYAMGWYRQAPGKERELVAVISSSGGSTYYADSVKGRFTISRDNAKNTVYLQLNSLKPEDTAVYYCNARAFRQGHFEYDYWGQGTQVTVSS”, the “polyreactivity (PSR sort gate)” value was “low polyreactivity”.
For “QVQLVESGGGLVQAGGSLRLSCAASGLIFGYNAMGWYRQAPGKEREYVAGISVIDGRTYYADSVKGRFTISRDNAKNTVYLQMNSLKPEDTAVYYCATEGFVYSWLWEFEYWGQGNQVTVSS”, the “polyreactivity (PSR sort gate)” value was “low polyreactivity”.
With “QVQLVESGGGLVQAGGSLRLSCAASGLIFHRNAMGWYRQAPGTERELVAAITKTGGGTYYADSVKGRFTISRDNAKNTVYLQMNSLKPEDTAVYYCAADTQRTFYYWGQGTQVTVSS” the “polyreactivity (PSR sort gate)” value was “low polyreactivity”.
With “QVQLVESGGGLVQAGGSLRLSCAASGLIFIDYAIGWYRQAPGKERELVAAITRGGARTYYADSVKGRFTISRDNAKNTVYLEMNSLKPEDTAVYYCAADRPGSRYIDVDYWGQGTQVTVSS” the “polyreactivity (PSR sort gate)” value was “high polyreactivity”.
With “QVQLVESGGGLVQAGGSLRLSCAASGLIFIFNTMGWYRQAPGKERELVAAISWSGTSTYYADSVKGRFTISRDNANMTVYLLMNSLKPVDTAVYFCNDDLYWFRGFDYWGQGTQVTVSS” the “polyreactivity (PSR sort gate)” value was “high polyreactivity”.
In the case of “QVQLVESGGGLVQAGGSLRLSCAASGLIFIVYAMGWYRQAPGKERELVAAISWSGGSTYYADSVKGRFTISRDNAKNTVYLQMNSLKPEDTAVYYCAAESYGVWDYEYWGQGTQVTVSS”, the “polyreactivity (PSR sort gate)” value is reported as “high polyreactivity”.
In the case of “QVQLVESGGGLVQAGGSLRLSCAASGLIFKYNVMGWYRQAPGKERELVAAITKRGGSTYYADSVKGRFTISRDNAKNTVYLQMNSLKPEDTAVYYCAARPVNTVRPFDYWGQGTQVTVSS”, the “polyreactivity (PSR sort gate)” value is reported as “high polyreactivity”.
For “QVQLVESGGGLVQAGGSLRLSCAASGLIFKYNVMGWYRQAPGKERELVAAITKRGGSTYYADSVKGRFTISRDNEKNTVYLQMNSLKPEDTAVYYCAARPVNTVRPFDYWGQGTQVTVSS”, the “polyreactivity (PSR sort gate)” value was “high polyreactivity”.
For “QVQLVESGGGLVQAGGSLRLSCAASGLIFKYYAMGWYRHAPGKERELVAAITWRGGDRTYYADSVKGRFTISRDNAKNTVYLQMNSLKPEDTAVYYCAAVISSPWRFDYWGQGTQVTVSS”, the “polyreactivity (PSR sort gate)” value was “high polyreactivity”.
With “QVQLVESGGGLVQAGGSLRLSCAASGLIFKYYAMGWYRQAPGKERELVASISRGGVTTYYADSVKGRFTISRDNAKNTVYLQMNSLKPEDTAVYYCAARFRYAPFYHWGQGTQVTVSS” the “polyreactivity (PSR sort gate)” value was “high polyreactivity”.
With “QVQLVESGGGLVQAGGSLRLSCAASGLIFLWYAMGWYRQAPGKERELVAAIRSSGDSTYYADSVKGRFTISRDNAKNTVYLQMNSLKPEDTAVYYCNRRKTNSRYDYWGQGTQVTVSS” the “polyreactivity (PSR sort gate)” value was “low polyreactivity”.
For “QVQLVESGGGLVQAGGSLRLSCAASGLIFLYAMGWYRQAPGKERELVAAISNGGSTYYADSVKGRFTISRDNAKNTVYLQMNSLKPEDTAVYYCAAKGVRRRYRQDMYYWGQGTQVTVSS”, the “polyreactivity (PSR sort gate)” value was “high polyreactivity”.
For “QVQLVESGGGLVQAGGSLRLSCAASGLIFLYNPMGWYRQAPGKEREFVAAITSVDSTKYADSVKGRFTISRENAKNTVYLQLNSLKPEDTAVYYCAAVPRYQYGYWGQGTQVTVSS”, the “polyreactivity (PSR sort gate)” value was “low polyreactivity”.
In the case of “QVQLVESGGGLVQAGGSLRLSCAASGLIFNWNDMGWYRQAPGKERELVAAISGDGGITYYADSVKGRFTISRDNAKNTVYLQMNSLKPEDTAVYYCNAGFTWGDWYDYWGQGTQVTVSS”, the “polyreactivity (PSR sort gate)” value is reported as “low polyreactivity”.
For “QVQLVESGGGLVQAGGSLRLSCAASGLIFNYNSMGWYLQAPGKEMELVAVITSGDSTNYADSVKGRFTISRDNAKNTVYLQMNSLKPEDTAVYYCNADYVYSGGRYYGKDYWFDYWGQGTQVTVSS”, the “polyreactivity (PSR sort gate)” value was “low polyreactivity”.
With “QVQLVESGGGLVQAGGSLRLSCAASGLIFPGYAMGWYRPAPGKERELVAAISGSGGSTYYADSVKGRFTISRDNAKNTVYLQMNSLKPEDTAVYYCSTSGPQYYSRNFDYWGQGTQVTVSS” the “polyreactivity (PSR sort gate)” value was “low polyreactivity”.
With “QVQLVESGGGLVQAGGSLRLSCAASGLIFPKYAMGWYRQAPGNEREFVAAISGRGGTTYYADSVKGRFTISRDNAKNTVYLQMNSLKPEDTAVYYCAAGGPWANIYGNGYWGQGTQVTVSS” the “polyreactivity (PSR sort gate)” value was “high polyreactivity”.
In the case of “QVQLVESGGGLVQAGGSLRLSCAASGLIFPPNVMGWYRQAPWKERELVAAITSSGSTKYADSVKGRFTISRDNAKNTVYLQMNSLKPEDTAVYYCARDQTWSYQPWYYLSYPQYEYWGQGTQVTVSS”, the “polyreactivity (PSR sort gate)” value is reported as “low polyreactivity”.
For “QVQLVESGGGLVQAGGSLRLSCAASGLIFPPYAMGWYRQAPGKEREFVARISWSTSSTYYADSVKGRFTISRDNAKNTVYLQMNSLKPEDTAVYYCNARFDDWWGEFDYWGQGTQVTVSS”, the “polyreactivity (PSR sort gate)” value was “high polyreactivity”.
With “QVQLVESGGGLVQAGGSLRLSCAASGLIFPVYVMGWYRQAPGKEREFVAAITWSTSTYYADSVKGRFTISRDNAKNTVYLQMNSLKPEDTAVYYCNARRGWYSPIYYYWGQGTQVTVSS” the “polyreactivity (PSR sort gate)” value was “high polyreactivity”.
With “QVQLVESGGGLVQAGGSLRLSCAASGLIFQTYAMGWSRQAPGKERELVATISGSTGGTYYADSVKGRFTISRDNAKNTVYLQMNSLKPEDTAVYYCNASVFQSEYDYWGQGTQVTVSS” the “polyreactivity (PSR sort gate)” value was “low polyreactivity”.
For “QVQLVESGGGLVQAGGSLRLSCAASGLIFQVYDIGWYRQAPGKERELVAAISSGSNTNYADSVKGRFTISRDNAKNTVYLQMNSLKPEDTAVYYCAADFQYYFFWEEDYWGQGTQVTVSS”, the “polyreactivity (PSR sort gate)” value was “low polyreactivity”.
With “QVQLVESGGGLVQAGGSLRLSCAASGLIFQVYDMGWYRQAPGKERELDAAISSGSNTNYADSVKGRFTISRDNAKNTVYLQMNSLIPEDTAVYYCAASWGYGGLTPDMGYWGQGTHVTVSS” the “polyreactivity (PSR sort gate)” value was “low polyreactivity”.
In the case of “QVQLVESGGGLVQAGGSLRLSCAASGLIFRHYVMGWYRQAPGKERELVAAITSRGGTTYYADSVKGRFTISRDNAKNTVYLQMNSLKPEDTAVYYCATVHSYTIQRYDYWGQGTQVTVSS”, the “polyreactivity (PSR sort gate)” value is reported as “high polyreactivity”.
For “QVQLVESGGGLVQAGGSLRLSCAASGLIFRKNAMGWYRQAPGKERELVAAISSSDSSTYADSVKGRFTISRDNAKNTVYLQMYSLKPEDTAVYYCAAASYNWLDWVTREYWGQGTQVTVSS”, the “polyreactivity (PSR sort gate)” value was “low polyreactivity”.
